System: target antigen-expressing cell line
Test: Jurkat NFAT-GFP assay, coculture with target cell lines expressing the respective target antigen (summary Table 10A)
Format: cell-based, human
Parameters: key: The signs +/−, +, 2+ etc. after the name of the cell lines indicate the relative degree of positivity on the Jurkat-NFAT-GFP assay as measured by the % GFP positive cells; +: relative degree of positivity on the Jurkat-NFAT-GFP assay as measured by the % GFP positive cells; 2+: relative degree of positivity on the Jurkat-NFAT-GFP assay as measured by the % GFP positive cells
Details: relative % GFP positive cells; for NFAT-GFP ASSAY Positive Cell lines: RAJI: SIR-expressing Jurkat-NFAT-GFP cells cocultured with RAJI
Outline: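 Readout is % GFP+ cells by FACS, graded +/− to 2+ relative to parental reporter cells. Jurkat-NFAT-GFP cells stably transduced with SIR constructs (puromycin-selected) were mixed with target-antigen-expressing cell lines at roughly 1:2 effector:target and cocultured ~4–18 h.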

B1: 031417-L06 (protein)
chain: MALPVTALLLPLALLLHAARPQIVLSQSPAILSASPGEKVTMTCRASSSVSYMHWYQQKPGSSPKPWIYATSNLASGVPARFSGSGSGTSYSFTISRVEAEDAATYYCQQWTFNPPTFGGGTRLEIKRTVAALEDLKNVFPPEVAVFEPSKAEIAHTQKATLVCLATGFYPDHVELSWWVNGKEVHSGVCTDPQPLKEQPALNDSRYCLSSRLRVSATFWQNPRNHFRCQVQFYGLSENDEWTQDRAKPVTQIVSAEAWGRADCGITSASYHQGVLSATILYEILLGKATLYAVLVSALVLMAMVKRKDSRGRAKRSGSGATNFSLLKQAGDVEENPGPTSMDWIWRILFLVGAATGAHSFEQAYLQQSGAELVRPGASVKMSCKASGYTFTSYNMHWVKQTPRQGLEWIGGIYPGNGDTSYNQKFKGKATLTVGKSSSTAYMQLSSLTSEDSAVYFCARYDYNYAMDYWGQGTSVTVSSASTRIQNPDPAVYQLRDSKSSDKSVCLFTDFDSQTNVSQSKDSDVYITDKCVLDMRSMDFKSNSAVAWSNKSDFACANAFNNSIIPEDTFFPSSDVPCDVKLVEKSFETDTNLNFQNLSVIGFRILLLKVAGFNLLMTLRLWSSRAKRSGSGVKQTLNFDLLKLAGDVESNPGPSRGHMTEYKPTVRLATRDDVPRAVRTLAAAFADYPATRHTVDPDRHIERVTELQELFLTRVGLDIGKVWVADDGAAVAVWTTPESVEAGAVFAEIGPRMAELSGSRLAAQQQMEGLLAPHRPKEPAWFLATVGVSPDHQGKGLGSAVVLPGVEAAERAGVPAFLETSAPRNLPFYERLGFTVTADVEVPEGPRTWCMTRKPGA
NFAT-GFP ASSAY Positive Cell lines: RAJI: RAJI (+/−)

B2: 030817-F07 (protein)
chain: MALPVTALLLPLALLLHAARPEIVLTQSPGTLSLSPGERATLSCRASSSVPYIHWYQQKPGQAPRLLIYATSALASGIPDRFSGSGSGTDFTLTISRLEPEDFAVYYCQQWLSNPPTFGQGTKLELKRLEIQNPDPAVYQLRDSKSSDKSVCLFTDFDSQTNVSQSKDSDVYITDKCVLDMRSMDFKSNSAVAWSNKSDFACANAFNNSIIPEDTFFPSSDVPCDVKLVEKSFETDTNLNFQNLSVIGFRILLLKVAGFNLLMTLRLWSSRAKRSGSGVKQTLNFDLLKLAGDVESNPGPTSMDWIWRILFLVGAATGAHSFEEVQLVQSGAEVKKPGESLKLSCKGSGRTFTSYNMHWVRQMPGKGLEWMGAIYPLTGDTSYNQKSKLQVTISADKSISTAYLQWSSLKASDTAMYYCARSTYVGGDWQFDVWGKGTTVTVSSTREDLKNVFPPEVAVFEPSKAEIAHTQKATLVCLATGFYPDHVELSWWVNGKEVHSGVCTDPQPLKEQPALNDSRYCLSSRLRVSATFWQNPRNHFRCQVQFYGLSENDEWTQDRAKPVTQIVSAEAWGRADCGITSASYHQGVLSATILYEILLGKATLYAVLVSALVLMAMVKRKDSRGRAKRSGSGATNFSLLKQAGDVEENPGPSRGHMTEYKPTVRLATRDDVPRAVRTLAAAFADYPATRHTVDPDRHIERVTELQELFLTRVGLDIGKVWVADDGAAVAVWTTPESVEAGAVFAEIGPRMAELSGSRLAAQQQMEGLLAPHRPKEPAWFLATVGVSPDHQGKGLGSAVVLPGVEAAERAGVPAFLETSAPRNLPFYERLGFTVTADVEVPEGPRTWCMTRKPGA
NFAT-GFP ASSAY Positive Cell lines: RAJI: RAJI (+/−)

B3: 030817-E07 (protein)
chain: MALPVTALLLPLALLLHAARPEIVLTQSPSSLSASVGDRVTITCRASSSLSFMHWYQQKPGKAPKPWIYATSNLASGVPSRFSGSGSGTDYTLTISSLQPEDFATYFCHQWSSNPLTFGGGTKVEIKLEIQNPDPAVYQLRDSKSSDKSVCLFTDFDSQTNVSQSKDSDVYITDKCVLDMRSMDFKSNSAVAWSNKSDFACANAFNNSIIPEDTFFPSSDVPCDVKLVEKSFETDTNLNFQNLSVIGFRILLLKVAGFNLLMTLRLWSSRAKRSGSGVKQTLNFDLLKLAGDVESNPGPTSMDWIWRILFLVGAATGAHSFEQVQLVQSGAEVKKPGASVKVSCKASGYTFTSYNMHWVRQAPGQRLEWIGAIYPGNGDTSYNQKFKGRVTVTRDTSANTAYMELSSLKSEDTAVYYCARSHYGSNYVDYFDYWGQGTLVTVSSTREDLKNVFPPEVAVFEPSKAEIAHTQKATLVCLATGFYPDHVELSWWVNGKEVHSGVCTDPQPLKEQPALNDSRYCLSSRLRVSATFWQNPRNHFRCQVQFYGLSENDEWTQDRAKPVTQIVSAEAWGRADCGITSASYHQGVLSATILYEILLGKATLYAVLVSALVLMAMVKRKDSRGRAKRSGSGATNFSLLKQAGDVEENPGPSRGHMTEYKPTVRLATRDDVPRAVRTLAAAFADYPATRHTVDPDRHIERVTELQELFLTRVGLDIGKVWVADDGAAVAVWTTPESVEAGAVFAEIGPRMAELSGSRLAAQQQMEGLLAPHRPKEPAWFLATVGVSPDHQGKGLGSAVVLPGVEAAERAGVPAFLETSAPRNLPFYERLGFTVTADVEVPEGPRTWCMTRKPGA
NFAT-GFP ASSAY Positive Cell lines: U266 (SIR-expressing Jurkat-NFAT-GFP cells cocultured with U266): U266 (+/−)

B4: 030817-W07 (protein)
chain: MALPVTALLLPLALLLHAARPSTVMTQSPDSLAVSLGERATINCKSSQSNSNDVAWYQQKPGQSPKVLIYFASNRYSGVPDRFSGSGYGTDFTLTISSLQAEDVAVYFCQQDYSSPLTFGAGTKLELKRADALEDLKNVFPPEVAVFEPSKAEIAHTQKATLVCLATGFYPDHVELSWWVNGKEVHSGVCTDPQPLKEQPALNDSRYCLSSRLRVSATFWQNPRNHFRCQVQFYGLSENDEWTQDRAKPVTQIVSAEAWGRADCGITSASYHQGVLSATILYEILLGKATLYAVLVSALVLMAMVKRKDSRGRAKRSGSGATNFSLLKQAGDVEENPGPTSMDWIWRILFLVGAATGAHSFEQIQLVQSGSELKKPGASVKVSCKASGYTFTNFGVNWVRQAPGKGLEWMGWINTYTGEPSYAQGFTGRFVFSLDASVSTAYLQISSLKAEDTATYFCTRRTNYYGTSYYYAMDYWGQGTTVTVSSAKTTTRIQNPDPAVYQLRDSKSSDKSVCLFTDFDSQTNVSQSKDSDVYITDKCVLDMRSMDFKSNSAVAWSNKSDFACANAFNNSIIPEDTFFPSSDVPCDVKLVEKSFETDTNLNFQNLSVIGFRILLLKVAGFNLLMTLRLWSSRAKRSGSGVKQTLNFDLLKLAGDVESNPGPSRGHMTEYKPTVRLATRDDVPRAVRTLAAAFADYPATRHTVDPDRHIERVTELQELFLTRVGLDIGKVWVADDGAAVAVWTTPESVEAGAVFAEIGPRMAELSGSRLAAQQQMEGLLAPHRPKEPAWFLATVGVSPDHQGKGLGSAVVLPGVEAAERAGVPAFLETSAPRNLPFYERLGFTVTADVEVPEGPRTWCMTRKPGA
NFAT-GFP ASSAY Positive Cell lines: RAJI: RAJI (+/−)

B5: 030817-X05 (protein)
chain: MALPVTALLLPLALLLHAARPDIQMTQSPSSLSASVGDRVTITCRASSSVSYMHWYQQKPGKAPKPLIYAPSNLASGVPSRFSGSGSGTDFTLTISSLQPEDFATYYCQQWSFNPPTFGQGTKVEIKRLEDLKNVFPPEVAVFEPSKAEIAHTQKATLVCLATGFYPDHVELSWWVNGKEVHSGVCTDPQPLKEQPALNDSRYCLSSRLRVSATFWQNPRNHFRCQVQFYGLSENDEWTQDRAKPVTQIVSAEAWGRADCGITSASYHQGVLSATILYEILLGKATLYAVLVSALVLMAMVKRKDSRGRAKRSGSGATNFSLLKQAGDVEENPGPTSMDWIWRILFLVGAATGAHSFEEVQLVESGGGLVQPGGSLRLSCAASGYTFTSYNMHWVRQAPGKGLEWVGAIYPGNGDTSYNQKFKGRFTISVDKSKNTLYLQMNSLRAEDTAVYYCARVVYYSNSYWYFDVWGQGTLVTVSSTRIQNPDPAVYQLRDSKSSDKSVCLFTDFDSQTNVSQSKDSDVYITDKCVLDMRSMDFKSNSAVAWSNKSDFACANAFNNSIIPEDTFFPSSDVPCDVKLVEKSFETDTNLNFQNLSVIGFRILLLKVAGFNLLMTLRLWSSRAKRSGSGVKQTLNFDLLKLAGDVESNPGPSRGHMTEYKPTVRLATRDDVPRAVRTLAAAFADYPATRHTVDPDRHIERVTELQELFLTRVGLDIGKVWVADDGAAVAVWTTPESVEAGAVFAEIGPRMAELSGSRLAAQQQMEGLLAPHRPKEPAWFLATVGVSPDHQGKGLGSAVVLPGVEAAERAGVPAFLETSAPRNLPFYERLGFTVTADVEVPEGPRTWCMTRKPGA
NFAT-GFP ASSAY Positive Cell lines: RAJI: RAJI (+/−)

Source: US12269859B2, “Synthetic immune receptors and methods of use thereof” (Angeles Therapeutics, Inc., priority 2016, dated 2025)
